Reference: US20240327506A1, “METHODS AND COMPOSITION FOR THE SELECTIVE ENHANCEMENT OF ADOPTIVE CELL THERAPY” (MaineHealth, priority 2023, published 2024)

Experiments:
β3 integrin = molecular target: T1, β3 integrin (Homo sapiens, UniProt P05106+P06756); test: Western blot of β3 integrin phosphorylation in Jurkat T-cells after peptide stimulation; format: cell-based; details: compared to control peptide CP
T1 construct: we next stimulated human Jurkat T-cells or primary CD8+ T-cells with a synthetic version of the soluble RGDKGE; endogenous in cells; host or cells: Jurkat T-cells
T1 sequence (P05106 27-788): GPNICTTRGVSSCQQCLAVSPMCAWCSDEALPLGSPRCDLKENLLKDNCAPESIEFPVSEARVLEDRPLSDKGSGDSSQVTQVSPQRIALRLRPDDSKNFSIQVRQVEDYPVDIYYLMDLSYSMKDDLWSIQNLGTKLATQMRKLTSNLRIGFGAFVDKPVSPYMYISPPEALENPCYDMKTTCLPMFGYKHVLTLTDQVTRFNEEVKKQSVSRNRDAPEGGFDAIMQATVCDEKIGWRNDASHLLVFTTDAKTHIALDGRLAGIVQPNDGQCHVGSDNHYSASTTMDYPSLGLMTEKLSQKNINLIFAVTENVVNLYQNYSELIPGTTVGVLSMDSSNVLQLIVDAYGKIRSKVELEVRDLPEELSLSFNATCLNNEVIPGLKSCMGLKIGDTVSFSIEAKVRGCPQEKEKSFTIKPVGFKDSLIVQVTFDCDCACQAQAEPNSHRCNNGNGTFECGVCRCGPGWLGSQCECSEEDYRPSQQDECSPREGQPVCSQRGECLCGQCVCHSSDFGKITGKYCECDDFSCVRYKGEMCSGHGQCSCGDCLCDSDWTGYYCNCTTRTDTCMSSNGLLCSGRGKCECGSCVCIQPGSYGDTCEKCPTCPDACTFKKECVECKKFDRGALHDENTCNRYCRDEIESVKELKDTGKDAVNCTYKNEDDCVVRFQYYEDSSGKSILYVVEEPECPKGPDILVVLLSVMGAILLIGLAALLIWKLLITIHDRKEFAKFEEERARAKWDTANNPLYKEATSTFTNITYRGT
T1 sequence (P06756 31-889 limits assumed): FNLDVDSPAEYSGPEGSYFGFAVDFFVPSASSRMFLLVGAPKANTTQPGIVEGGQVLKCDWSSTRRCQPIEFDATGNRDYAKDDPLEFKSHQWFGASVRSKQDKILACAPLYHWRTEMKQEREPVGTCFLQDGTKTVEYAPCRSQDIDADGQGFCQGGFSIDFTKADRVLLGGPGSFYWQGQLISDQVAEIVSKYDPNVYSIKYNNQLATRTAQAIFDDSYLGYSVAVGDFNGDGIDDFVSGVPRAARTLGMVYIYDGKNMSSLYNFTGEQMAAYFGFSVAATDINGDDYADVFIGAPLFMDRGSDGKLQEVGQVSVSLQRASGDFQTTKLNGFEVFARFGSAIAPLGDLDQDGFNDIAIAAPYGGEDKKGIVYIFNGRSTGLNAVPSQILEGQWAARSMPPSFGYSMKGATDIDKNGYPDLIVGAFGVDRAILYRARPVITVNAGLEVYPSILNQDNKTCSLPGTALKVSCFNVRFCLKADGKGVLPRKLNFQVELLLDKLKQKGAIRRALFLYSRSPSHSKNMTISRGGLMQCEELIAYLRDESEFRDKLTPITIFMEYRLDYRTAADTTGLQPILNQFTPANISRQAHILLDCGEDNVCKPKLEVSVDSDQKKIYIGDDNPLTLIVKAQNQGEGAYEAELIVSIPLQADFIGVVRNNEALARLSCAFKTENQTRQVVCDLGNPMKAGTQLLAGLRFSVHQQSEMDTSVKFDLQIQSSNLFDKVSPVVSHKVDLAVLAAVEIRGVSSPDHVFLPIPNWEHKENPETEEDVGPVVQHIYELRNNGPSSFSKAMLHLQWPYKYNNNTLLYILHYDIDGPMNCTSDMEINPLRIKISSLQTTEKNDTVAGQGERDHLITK
T1 sequence (P06756 891-1048 partner limits assumed): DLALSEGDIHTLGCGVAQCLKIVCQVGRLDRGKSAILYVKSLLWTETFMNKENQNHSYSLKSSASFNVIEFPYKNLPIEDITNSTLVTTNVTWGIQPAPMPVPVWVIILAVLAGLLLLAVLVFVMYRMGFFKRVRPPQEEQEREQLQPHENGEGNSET
Protocol: FIGS. 2A-2F. Detection of RGDKGE (SEQ ID NO: 1)-containing collagen peptide in malignant tumor cells and expression of key signaling molecules in T-cells. Briefly, whole cell lysates and serum free concentrated conditioned medium was prepared from tumor cells lines. FIG. 2A. Western blot analysis of whole cell lysates from human C8161 and murine B16F10 melanoma cells for the expression of the low molecular weight 16 kDa RGDKGE (SEQ ID NO: 1)-containing collagen peptide (XL313) or actin as a loading control. FIG. 2B. […]
Whole cell and CAM tissue lysates were collected in RIPA buffer (10 mM Tris-HCl, pH 8.0; 1 mM EDTA; 0.5 mM EGTA; 1% Triton X-100; 0.1% Sodium Deoxycholate; 0.1% SDS; 140 mM NaCl) supplemented with 1× protease inhibitor and 1× phosphatase inhibitor and were run on polyacrylamide gels using denaturing conditions. […] Western blot bands were quantified using Image J software based on pixel intensity.
We previously made the surprising observation that a small bioactive collagen peptide containing the core amino acid sequence RGDKGE (SEQ ID NO: 1) could be generated inside a subset of M2-like activated macrophages as well as a variety of other malignant tumor cells, and then actively secreted outside the cells (11-13). Importantly, minimal levels of this soluble collagen peptide was detected in normal cells (13). […]

[1] = system: angiogenesis and inflammation; details: peptide; cited from earlier work

In the case of “QGPRGDKGE (CQGPRGDKGEC; Synthetic: Synthetic collagen RGD containing peptide P-2) [Peptide P2, synthetic version of the soluble RGDKGE-containing collagen peptide]”, the β3 integrin phosphorylation (β3 integrin) is listed as “enhanced β3 integrin phosphorylation” and the “induction of angiogenesis and inflammation in vivo” value [1] is listed as “significantly induced angiogenesis and inflammation”.
